# Earlier results in publication PMC3463409.
# Biological target: Cys30 (UniProt position 49, FFSFFCPHCYQ)
# Conditions: not stated (a thiol pKa implies the reduced form of the active-site cysteine)
substance,measurement,value
Thiol:disulfide interchange protein DsbA (Escherichia coli),pKa,3.5
